Results on 78 sequences are retold here after the supplement of paper PMC10724198.

± gives the standard deviation of the averaged measurements.
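Further: PSI is a weighted mean of sequencing reads over stability bins, variants kept only with over 10 reads, mCherry proximal and sfGFP distal, peptide attached via GGGS linker.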

The data set relates to Saccharomyces cerevisiae. As to the kind of experiment: protein stability index of tFT-peptide fusion (C-terminal peptide) (PSI (0-1 scale)); higher = more stable (slower turnover). The conditions noted are these: genetic background: wild type; temperature: 30 C. As for the experimental part:
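Multiplexed protein stability (MPS) profiling in S. cerevisiae. Random 12-aa peptides (tFT-X12 library) are fused to the C-terminus of a sfGFP-mCherry tandem fluorescent timer, after mCherry and a GGGS linker. Cells are FACS-sorted into 8 mCherry/sfGFP bins and deep-sequenced. The protein stability index (PSI) is the read-weighted bin average, scaled from 0 (unstable) to 1 (stable). Only peptides with >10 reads are reported; cells were grown at 30 °C in SC-His with glucose.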
The sequence GGWGRGERRSRE came in with a protein stability index of 0.652 ± 0.045. Next, GGWLGGLGCFMV: 0.708 ± 0.046; GHGEGPGRDLGG: 0.648 ± 0.055. Next, GHIQDSLSPDPH: 0.613 ± 0.013. Under GHSLDPSVVSPD stands 0.674 ± 0.068; under GHVLVRHNVLAV, 0.58 ± 0.026.

The sequence GHYPCLPFLFPL came in with a protein stability index of 0.707 ± 0.087. Under GIDVGCEWYQGG stands 0.698 ± 0.037. Under GIEKEADRVRKN stands 0.659 ± 0.07. In turn, GIGGYACHFYVW yielded a protein stability index of 0.673 ± 0.012. Under GIGSSKESGGLW stands 0.737 ± 0.05; under GIGVGGIHGGIL, 0.7547 ± 0.0044. Under GIRAVRYFNSCC stands 0.598 ± 0.011. Under GIRFGLVCYPNF stands 0.6537 ± 0.0025; under GIRVEWVGRNRC, 0.676 ± 0.023. Regarding GISFFPVGGPLI, the protein stability index was determined as 0.735 ± 0.062. Under GISPDGSSIMAA stands 0.689 ± 0.02. GITCAEGAAMKR displayed a protein stability index of 0.676 ± 0.022.

The sequence GIVGFSHGIISL yielded a protein stability index of 0.703 ± 0.032.

With GIYARPRPTQCP, the protein stability index was 0.6718 ± 0.0037. The sequence GIYLEESPMRKF came in with a protein stability index of 0.708 ± 0.014. GKERIYVYGWSK showed a protein stability index of 0.686 ± 0.016. Next, GKEWRGSGGMRR: 0.646 ± 0.014; GKGKETKELIGK: 0.711 ± 0.023. GKLGSSPQLRYY: the protein stability index stood at 0.704 ± 0.046. Next, GKLRTVVCMCYI: 0.643 ± 0.1; GKNKRERNRSSG: 0.771 ± 0.14; GKRGGTGAGEKR: 0.66 ± 0.071. Next, GKRVNLNITSHS: 0.683 ± 0.024. Under GKSHLGGSLTVL stands 0.671 ± 0.034; under GKSVVAHGLLGG, 0.6702 ± 0.0018; under GKSYWYDSGNMM, 0.752 ± 0.078. For GLACSRYVLFWK, the protein stability index is 0.562 ± 0.023. Next, GLAYGICYRVVL: 0.637 ± 0.011; GLCTSIFSVVFF: 0.679 ± 0.092; GLCVTEFCGFFL: 0.705 ± 0.019.

The sequence GLDVFFPMDRQA registered a protein stability index of 0.764 ± 0.08. On to GLGALPVRVWEG, for which the protein stability index is 0.731 ± 0.034.

The sequence GLGGPYNSHMFT gave a protein stability index of 0.991 ± 0.013. Under GLGGYVIKYIMI stands 0.572 ± 0.02. Under GLGLAFRGSFVL stands 0.69 ± 0.056; under GLGREVAIMNTW, 0.669 ± 0.058.

Consider GLGWGGRGMRVV, for which the protein stability index was 0.695 ± 0.026. Under GLMGWGLFCGFG stands 0.7759 ± 0.0043; under GLPRAANMKGSE, 0.652 ± 0.011. Next, GLREGRRRSNDQ: 0.653 ± 0.12; GLRFIAMNIQML: 0.658 ± 0.026; GLRIRFSNSYVG: 0.688 ± 0.057. Next, GLRLCLSMWLRD: 0.633 ± 0.054. Sequence GLRTPHASVPPQ yielded a protein stability index of 0.66 ± 0.023. Next, GLSDLTFFKRLF: 0.659 ± 0.036. Next, GLSIVCRHYEES: 0.685 ± 0.022; GLSLLVDLNVWF: 0.569 ± 0.034. As for GLSSNVTSSTLS, the protein stability index was determined as 0.685 ± 0.015.

In the case of GLTSRIAAGRQR, the protein stability index stood at 0.696 ± 0.022.

Sequence GLTWLVLGFPGS showed a protein stability index of 0.757 ± 0.052. Under GLVGRGGAVGEW stands 0.68596 ± 0.00038; under GLVSGGFYFGLL, 0.681 ± 0.054. Under GLVVCGGQVVEG stands 0.704 ± 0.042; under GLVWGGCGTVGG, 0.768 ± 0.17; under GLVWGGGGTVGG, 0.73 ± 0.12. For GLVWRSRDDQLS, the protein stability index is 0.764 ± 0.07. Next, GLYSGGLGAGVG: 0.658 ± 0.092; GMGTWSSNRREC: 0.872 ± 0.18; GMLLCAGGISKG: 0.584 ± 0.011. GMVFGLAWCGCL had a protein stability index of 0.619 ± 0.046.

Consider GNHNGKIILDNR, for which the protein stability index was found to be 0.679 ± 0.023. With GNNREGYRSAQA, the protein stability index came out at 0.599 ± 0.054. Under GNVLIRFSCSDS stands 0.754 ± 0.05; under GNWRGLRLMSAP, 0.7603 ± 0.0062. Under GPAGGGRLECGV stands 0.7157 ± 0.0069.

GPCTTFVVLLPE: the protein stability index is 0.778 ± 0.14. Under GPFGCLRSLIRG stands 0.642 ± 0.097. GPGAGRRKSAER displayed a protein stability index of 0.61607 ± 0.00056. Next, GPGGVGGTSGGK: 0.69 ± 0.062; GPGVGYGRWRGG: 0.667 ± 0.094; GPHGNPGLAPLA: 0.7282 ± 0.0021. Next, GPLRPTPAPNRT: 0.644 ± 0.0079.
